Assay [1] concerns the target insulin. Put plainly: cell-based or functional assay.
The target in assay [2] is Aβ42 (UniProt P05067). Put plainly: cell-based or functional assay.
The target in assay [3] is lysozyme. Briefly: cell-based or functional assay.
Assay [4] concerns the target amylin (UniProt P10997). Briefly: cell-based or functional assay.
Assay [5] addresses T1, amylin fibers, P10997.
T1 chain: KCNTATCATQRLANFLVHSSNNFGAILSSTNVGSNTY
Briefly: ELISA, amyloid coated at 1 µg/well, His-tagged ZR detected with HRP-linked antibody. Background: An ELISA detects its analyte on a solid surface through an enzyme-linked reagent.

Assay [6] concerns the target Aβ42 monomers, P05067. The description is as above.
In assay [7] the target is T2, amylin monomers, P10997.
T2 chain: T1 chain
Described as above.

Assay [8] concerns the target T3, amylin oligomers, P10997.
T3 chain: T1 chain
The description is as above.

Assay [9] has as its target Aβ42 fibers, P05067. The assay is described as above.
In assay [10] the target is Aβ42 oligomers, P05067. The description is as above.
Sequence of Aβ42 oligomers, P05067 (P05067 672-713 limits assumed): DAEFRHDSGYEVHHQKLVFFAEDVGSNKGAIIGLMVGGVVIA

Sequence of Aβ42 (P05067 672-713 limits assumed): as above
Sequence of Aβ42 fibers, P05067 (P05067 672-713 limits assumed): as above
Sequence of Aβ42 monomers, P05067 (P05067 672-713 limits assumed): as above

Turning to SFFNNKR [ZR polypeptide (SEQ ID NO. 2)], in assay [1], the ThT fluorescence value, insulin with ZR at a molar ratio of 1:1 (insulin alone: 305000) amounted to 305000; the ThT fluorescence value, insulin with ZR at a molar ratio of 1:10 (insulin alone: 305000) amounted to 310000; the cell activity of SH-SY5Y cells (MTT), insulin:ZR=1:1 group (insulin group: 77%) was 92%; the cell activity of SH-SY5Y cells (MTT), insulin:ZR=1:5 group (insulin group: 77%) worked out at 102%. Moreover, in assay [1], the cytotoxicity inhibited, molar ratio 1:5 was found to be 89.8%. Besides, in assay [2], the ThT fluorescence value, Aβ42 with ZR at a molar ratio of 1:1 (Aβ42 alone: 26500) is 22000; the ThT fluorescence value, Aβ42 with ZR at a molar ratio of 1:10 (Aβ42 alone: 26500) amounted to 17000; the cell activity of SH-SY5Y cells (MTT), Aβ:ZR=1:0.5 group (Aβ42 group: 71%) was 80%; the cell activity of SH-SY5Y cells (MTT), Aβ:ZR=1:1 group (Aβ42 group: 71%) was found to be 82%. Further, the cytotoxicity inhibited, molar ratio 1:1 in assay [2] was 37.8%. Also, in assay [3], the ThT fluorescence value, lysozyme with ZR at a molar ratio of 1:1 (lysozyme alone: 310000) stood at 220000; the ThT fluorescence value, lysozyme with ZR at a molar ratio of 1:10 (lysozyme alone: 310000) was 170000; the cell activity of SH-SY5Y cells (MTT), lysozyme:ZR=1:1 group (lysozyme group: 55%) was determined as 85%; the cell activity of SH-SY5Y cells (MTT), lysozyme:ZR=1:10 group (lysozyme group: 55%) was 93%. Further, the cytotoxicity inhibited, molar ratio 1:10 in assay [3] stood at 118%. In [4], the ThT fluorescence value, amylin with ZR at a molar ratio of 1:1 (amylin alone: 38000) turned out to be 41000; the ThT fluorescence value, amylin with ZR at a molar ratio of 1:10 (amylin alone: 38000) came out at 43000; the cell activity of SH-SY5Y cells (MTT), Amylin:ZR=1:1 group (Amylin group: 61%) is 70%; the cell activity of SH-SY5Y cells (MTT), Amylin:ZR=1:10 group (Amylin group: 61%) came out at 75%. The cytotoxicity inhibited, molar ratio 1:10 in [4] is 45.4%.

With SFFNNKR (modifications not checked) [histidine-tagged ZR polypeptide (SEQ ID NO. 2)], the OD450 in [5] was determined as 0.18; in assay [6], 0.34; in [7] it was 0.41; in assay [8] it was 0.5; in assay [9], 0.35; in [10] it was 0.38.

These data come from US20190330271A1.
